Results taken from PMC9064290.

Target: α1-specific anti-SynGAP antibody (06–800)
Test: western blot of cell lysates, band intensity quantified
Details: H293T cells transfected with wild-type or PBM EGFP-SynGAPα1; probed with Pan-SynGAP (D20C7) and α1-specific antibody; n = 4; parent: est. 1.0; read off a plot

ratio to parent: 0.45
Substance: EGFP-SynGAPα1 T/I; V/E (C-terminal PDZ-binding motif QTRV changed to QIRE)
